Test results published in patent US20240043547A1.

B1: PRO1901 (scFv)
scFv: AFQLTQSPSSLSASVGDRVTITCQASQSIDSWLAWYQQKPGKPPKLLIYQASKLASGVPSRFSGSGSGTDYTLTISSLQPEDFATYYCQTYYGGGHIGWGFGTGTKVTVLGGGGGSGGGGSGGGGSGGGGSQSQLVESGGGSVQPGGSLRLSCAASGFSFSANYWICWVRQAPGKGLEWIVCIYIGSRADTYYAPWAKGRFTISKDNSKNTVYLQMNSLRAEDTATYFCARFSSGIYDLDRFFLWGQGTQVTVSS
B2: PRO1903 (scFv)
scFv: AFQLTQSPSSLSASVGDRVTITCQASQSIESWLAWYQQKPGKPPKLLIYQASKLASGVPSRFSGSGSGTDYTLTISSLQPEDFATYYCQTYYGGGHIGWGFGTGTKVTVLGGGGGSGGGGSGGGGSGGGGSQSQLVESGGGLVQPGGSLRLSCAASGFSFSANYWICWVRQAPGKGLEWIVCIYIGSRADTYYAPWAKGRFTISKDNSKNTVYLQMNSLRAEDTAVYFCARFSSGIYDLDRFFLWGQGTLVTVSS
B3: PRO1902 (scFv)
scFv: AFQLTQSPSSLSASVGDRVTITCQASQSIDSWLAWYQQKPGKPPKLLIYQASKLASGVPSRFSGSGSGTDYTLTISSLQPEDFATYYCQTYYGGGHIGWGFGTGTKVTVLGGGGGSGGGGSGGGGSGGGGSQSQLVESGGGLVQPGGSLRLSCAASGFSFSANYWICWVRQAPGKGLEWIVCISIGSRADTYYAPWAKGRFTISKDNSKNTVYLQMNSLRAEDTAVYFCARFSSGIYDLDRFFLWGQGTLVTVSS

Tests used:
human IL-31 (human) = human IL-31 (human) (UniProt Q6EBC2); assay: cell-based or functional assay
[1] = target: cynomolgus IL-31-His (cynomolgus monkey (Macaca fascicularis)); assay: SPR (Biacore T200), cynomolgus IL-31-His captured via anti-His antibody, scFv as analyte

human IL-31 (human), sequence (Q6EBC2 24-164 limits assumed): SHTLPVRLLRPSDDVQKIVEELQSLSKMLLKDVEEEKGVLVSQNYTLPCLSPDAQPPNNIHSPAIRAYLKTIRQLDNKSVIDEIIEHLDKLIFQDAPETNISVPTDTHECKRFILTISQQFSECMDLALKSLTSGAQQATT

| Binder | IC50 [ng/ml], neutralization of hIL-31-induced signaling in IL-31RA/OSMR dimerization assay (human IL-31 (human)) [ng/mL] | rel. IC50 (IC50, BMS-981164/IC50, test sample), IL-31RA/OSMR dimerization assay (human IL-31 (human)) | Kd [1] [nM] | koff [1] [s⁻¹] | kon [1] [M⁻¹ s⁻¹] |
| --- | --- | --- | --- | --- | --- |
| B1 | 8.07 | 0.78 | 1.14 | 0.000569 | 501000 |
| B2 | 7.98 | 1.49 | 1.39 | 0.000605 | 434000 |
| B3 | 371 | 0.03 | 3.38 | 0.00247 | 731000 |
